# Experimental data from the Immune Epitope Database (IEDB).
# Experiments:
# HLA-B*40:01 [1] = test: IEDB peptide-MHC binding, purified MHC/direct/fluorescence; filed as Kd, often an IC50 or EC50 that approximates it; ≥ and ≤ were set here for values at or beyond the usual limits of such assays
# HLA-A*01:01 = test: as above
# HLA-A*03:01 = test: as above
# HLA-B*15:09 = test: as above; settings: source organism: Giardia lamblia ATCC 50803
# HLA-B*48:01 = test: as above; settings: source organism: Giardia lamblia ATCC 50803
# HLA-B*46:01 = test: as above
# HLA-B*15:01 = test: as above
# HLA-A*31:01 = test: as above
# HLA-B*27:05 [2] = test: as above
# HLA-A*02:01 = test: as above
# HLA-B*57:01 = test: as above; settings: source organism: Giardia lamblia ATCC 50803
# HLA-A*11:01 = test: as above
# HLA-B*38:01 = test: as above; settings: source organism: Giardia lamblia ATCC 50803
# HLA-B*39:01 = test: as above; settings: source organism: Giardia lamblia ATCC 50803
# HLA-B*07:02 = test: as above
# HLA-B*58:01 = test: as above; settings: source organism: Giardia lamblia ATCC 50803
# HLA-B*08:02 = test: as above; settings: source organism: Giardia lamblia ATCC 50803
# HLA-A*69:01 [3] = test: IEDB peptide-MHC binding, purified MHC/competitive/fluorescence; filed as Kd, often an IC50 or EC50 that approximates it; ≥ and ≤ were set here for values at or beyond the usual limits of such assays; settings: source organism: Giardia lamblia ATCC 50803
# HLA-B*15:17 = test: as above; settings: source organism: Giardia lamblia ATCC 50803
# HLA-B*27:05 [4] = test: IEDB peptide-MHC binding, purified MHC/competitive/fluorescence; ≥ and ≤ were set here for values at or beyond the usual limits of such assays; settings: source organism: Hepacivirus hominis
# HLA-B*83:01 = test: IEDB peptide-MHC binding, purified MHC/competitive/fluorescence; filed as Kd, often an IC50 or EC50 that approximates it; ≥ and ≤ were set here for values at or beyond the usual limits of such assays; settings: source organism: Escherichia coli 536
# HLA-B*40:01 [5] = test: as above; settings: source organism: Escherichia coli 536
# HLA-B*15:42 = test: as above; settings: source organism: Escherichia coli 536
# HLA-A*68:23 = test: as above; settings: source organism: Escherichia coli 536
# HLA-B*27:20 = test: as above; settings: source organism: Escherichia coli 536
# HLA-B*45:06 = test: as above; settings: source organism: Escherichia coli 536
# HLA-B*40:13 = test: as above; settings: source organism: Escherichia coli 536
# HLA-A*69:01 [6] = test: IEDB peptide-MHC binding, purified MHC/direct/fluorescence; filed as Kd, often an IC50 or EC50 that approximates it; ≥ and ≤ were set here for values at or beyond the usual limits of such assays; settings: source organism: Yersinia pestis
# HLA-A*26:01 = test: as above; settings: source organism: Yersinia pestis
# HLA-B*44:02 = test: as above; settings: source organism: Yersinia pestis
# HLA-B*08:01 = test: as above; settings: source organism: Yersinia pestis
# HLA-B*15:02 = test: as above; settings: source organism: Yersinia pestis CA88-4125
# HLA-B*35:01 = test: as above; settings: source organism: Yersinia pestis
# HLA-A*24:02 = test: IEDB peptide-MHC binding, purified MHC/competitive/fluorescence; filed as Kd, often an IC50 or EC50 that approximates it; ≥ and ≤ were set here for values at or beyond the usual limits of such assays; settings: source organism: Influenza A virus (A/X-31(H3N2))
# [7] = source organism: Giardia lamblia ATCC 50803
# [8] = source organism: Yersinia pestis
sequence,measurement,setting,value
ETESVNSNY,Kd,HLA-B*40:01 [1]; [7],≥ 20 µM
same,Kd,HLA-A*01:01; [7],0.0188 µM
same,Kd,HLA-A*03:01; [7],≥ 20 µM
same,Kd,HLA-B*15:09,≥ 20 µM
same,Kd,HLA-B*48:01,≥ 20 µM
same,Kd,HLA-B*46:01; [7],≥ 20 µM
same,Kd,HLA-B*15:01; [7],≥ 20 µM
same,Kd,HLA-A*31:01; [7],≥ 20 µM
same,Kd,HLA-B*27:05 [2]; [7],≥ 20 µM
same,Kd,HLA-A*02:01; [7],≥ 20 µM
same,Kd,HLA-B*57:01,≥ 20 µM
same,Kd,HLA-A*11:01; [7],≥ 20 µM
same,Kd,HLA-B*38:01,≥ 20 µM
same,Kd,HLA-B*39:01,≥ 20 µM
same,Kd,HLA-B*07:02; [7],≥ 20 µM
same,Kd,HLA-B*58:01,≥ 20 µM
same,Kd,HLA-B*08:02,≥ 20 µM
same,Kd,HLA-A*69:01 [3],≥ 20 µM
same,Kd,HLA-B*15:17,≥ 20 µM
GGAAICGKY,IC50,HLA-B*27:05 [4],≥ 750 µM
KEMGFSPRL,Kd,HLA-B*83:01,≥ 5 µM
same,Kd,HLA-B*40:01 [5],0.0103 µM
same,Kd,HLA-B*15:42,≥ 5 µM
same,Kd,HLA-A*68:23,0.121 µM
same,Kd,HLA-B*27:20,0.176 µM
same,Kd,HLA-B*45:06,≥ 5 µM
same,Kd,HLA-B*40:13,0.0336 µM
MQLQLNCAY,Kd,HLA-B*40:01 [1]; [8],0.705 µM
same,Kd,HLA-A*01:01; [8],2.77 µM
same,Kd,HLA-A*03:01; [8],≥ 20 µM
same,Kd,HLA-B*46:01; [8],≥ 20 µM
same,Kd,HLA-B*15:01; [8],0.112 µM
same,Kd,HLA-A*31:01; [8],6.35 µM
same,Kd,HLA-B*27:05 [2]; [8],≥ 20 µM
same,Kd,HLA-A*69:01 [6],1.33 µM
same,Kd,HLA-A*26:01,≥ 20 µM
same,Kd,HLA-B*44:02,≥ 20 µM
same,Kd,HLA-A*02:01; [8],≥ 20 µM
same,Kd,HLA-A*11:01; [8],≥ 20 µM
same,Kd,HLA-B*08:01,≥ 20 µM
same,Kd,HLA-B*15:02,0.015 µM
same,Kd,HLA-B*07:02; [8],≥ 10 µM
same,Kd,HLA-B*35:01,0.0337 µM
MYSDFHFI,Kd,HLA-A*24:02,0.146 µM
